Results from patent publication US20250188151A1, “C-JUN ANTAGONIST PEPTIDES” (The University of Bath, priority 2022, published 2025).

Experiments:
cJun bZIP [1] = biological target: T1, cJun bZIP (human, UniProt P05412 252-308, limits assumed); test: CD spectra at 20 °C
T1 construct: Purified from a His-SUMO fusion with the tag cleaved off; also called c-Jun bZIP domain; 60 amino acid c-Jun bZIP construct
T1 chain: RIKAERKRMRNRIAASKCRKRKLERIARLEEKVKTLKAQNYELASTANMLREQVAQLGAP

cJun bZIP [2] = biological target: T1, cJun bZIP; test: cell-based or functional assay
cJun/TRE DNA interaction = biological target: T2, cJun/TRE DNA interaction (Homo sapiens, UniProt P05412, S292Y); test: CD cJun/TRE DNA antagonism (shift of TRE DNA peak at ~281 nm, Hill fit); type: biochemical; conditions: HingeW concentrations of 50 and 100 μM
T2 construct: The same 60 amino acid c-Jun bZIP construct was used for all experiments; His-SUMO (N, cleaved yes); made in house; host or cells: E. coli

TRE DNA = test: CD control: peptide with TRE DNA; type: binding
Procedure: Circular Dichroism (CD): An Applied Photophysics Chirascan was used for CD measurements, with a 200 μL sample in a 1 mm path length CD cell. Protein/DNA samples were suspended in 150 mM potassium phosphate, 150 mM potassium fluoride and 5 mM TCEP at pH 7.4 and were equilibrated for 30 minutes before measurement. […] These scans were averaged and converted to molar residue ellipticities (MRE).

cJun bZIP [3] = biological target: T1, cJun bZIP; test: ITC, antagonist injected into cJun, one site model
cJun bZIP [4] = biological target: T1, cJun bZIP; test: CD thermal denaturation, peptide 5 µM and c-Jun 5 µM
cJun bZIP [5] = biological target: T1, cJun bZIP; test: ITC (PEAQ-ITC), peptide injected into cJun, one site model
cJun bZIP [6] = biological target: cJun bZIP (Homo sapiens, UniProt P05412, S292Y); test: CD spectra and thermal denaturation of peptide/cJun heterodimers
Procedure: (§1) Circular Dichroism (CD): An Applied Photophysics Chirascan was used for CD measurements, with a 200 μL sample in a 1 mm path length CD cell. Protein/DNA samples were suspended in 150 mM potassium phosphate, 150 mM potassium fluoride and 5 mM TCEP at pH 7.4 and were equilibrated for 30 minutes before measurement. […] These scans were averaged and converted to molar residue ellipticities (MRE). Thermal denaturation experiments were performed by measuring the ellipticity at 222 nm over a 1 to 90° C. gradient at 1° C. increments. Post-melt scans at 20° C. confirmed the transitions were reversible as they overlaid within 10% of the pre-melt scan.
(§2) Circular Dichroism (CD): An Applied Photophysics Chirascan was used for CD measurements, with a 200 μL sample in a 1 mm path length CD cell. Protein/DNA samples were suspended in 150 mM potassium phosphate, 150 mM potassium fluoride and 5 mM TCEP at pH 7.4 and were equilibrated for 30minutes before measurement. […] Thermal denaturation experiments were performed by measuring the ellipticity at 222 nm over a 1 to 90° C. gradient at 1° C. increments. Post-melt scans at 20° C. confirmed the transitions were reversible as they overlaid within 10% of the pre-melt scan.
(§3) Peptide helicity was determined by quantifying the CD signal at 222 nm of peptide only samples. Thermal denaturation experiments were then used to determine the Tm of peptide-c-Jun heterodimers, which was used as an approximate measure of target engagement. […] The same 60 amino acid c-Jun bZIP construct was used for all experiments, regardless of antagonist peptide length.

cFos bZIP = biological target: T3, cFos bZIP (human, UniProt P01100 137-193); test: CD spectra 190-260 nm, equimolar mixture compared with the average of the 10 µM component spectra
T3 construct: Purified from a His-SUMO fusion with the tag cleaved off; also called cFos bZIP domain
T3 chain: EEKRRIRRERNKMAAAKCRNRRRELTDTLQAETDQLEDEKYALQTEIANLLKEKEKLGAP

[7] = CD spectra and thermal denaturation of peptide-only samples (helicity, homodimer Tm); conditions: peptide alone
Procedure: as §1, §2, §3

cJun = cJun (Homo sapiens, UniProt P05412, S292Y); test: Isothermal titration calorimetry, Example 1 (MicroCal VP-ITC); type: binding; parameters: The same 60 amino acid c-Jun bZIP construct was used for all experiments; His-SUMO (N, cleaved yes); made in house; host or cells: E. coli; conditions: peptide 10 μM injected into cJun 1 μM, single site model; listed as HingeW
Procedure: Using a MicroCal VP-ITC instrument (Malvern), 10 μL injections of antagonist peptide (HingeW or A-FosW) at 10 μM were injected into the cell containing cJun at 1 μM. MicroCal Origin software was used to record and analyse the heat change upon addition. Control experiments involved the injection of the antagonist peptide sample into the cell containing ITC buffer alone to determine the heat of dilution which was subtracted. The resulting binding data were fit to a one site binding model to extract the enthalpy change of binding (ΔH) and the equilibrium binding constant (KD), from which the free energy change of binding (ΔG) and the entropy change of binding (AS) was calculated (Wiseman et al., 1989). Thermodynamic parameters are presented as an average of two independent experiments with errors given as one standard deviation.

B1: HingeW (peptide)
peptide: MASLEQRAEELARENEELEKEAEELVVEEDVLEEEIEQLEERNYALRKEIEDLQKQLEKLGAPHHHHHH
notes: Recombinant, capped (MAS at the N-terminus, GAP at the C-terminus) and C-terminally 6xHis-tagged, 69 amino acids; also called peptide 1
- increase in α-helical content relative to the average of the two component spectra (cJun bZIP [1]): 82%
- IC50, EMSA of free TRE DNA band (cJun bZIP [2]): 9.6 µM
- TBS assay colony numbers relative to A-FosW (cJun bZIP [2]): 10%
- TBS assay colony numbers relative to TRE-mDHFR alone (cJun bZIP [2]): 66%
- antagonism of the cJun/TRE interaction (cJun/TRE DNA interaction): complete antagonism
- interaction with TRE DNA (TRE DNA): no interaction
- Kd (cJun bZIP [3]): 0.0144 µM
- TΔS (ITC) (cJun bZIP [3]): -39.2 kJ/mol
- ΔG (ITC) (cJun bZIP [3]): -46.2 kJ/mol
- ΔH (ITC) (cJun bZIP [3]): -85.4 kJ/mol
- Tm (° C.) of peptide-c-Jun heterodimer (cJun bZIP [4]): 71.2 ° C.
- -TΔS (cJun bZIP [5]): 73.4 kJ/mol
- Stoichiometry, n (cJun bZIP [5]): 0.93
- ΔG (cJun bZIP [5]): -56.3 kJ/mol
- ΔH (cJun bZIP [5]): -130 kJ/mol
- increase in heterodimer Tm relative to A-FosW/cJun (cJun bZIP [6]): 1.3 °C
- Fraction helicity at 20° C. (CD) (cJun bZIP [6]; heterodimer with c-Jun, equimolar, 10 μM total): 34.7%
- Tm (° C.) (CD) (cJun bZIP [6]; heterodimer with cJun bZIP, Example 1, listed as HingeW): 71.2 °C
- ΔTm from component average (CD) (cJun bZIP [6]; heterodimer with cJun vs average of component profiles, listed as HingeW): ~40 °C
- binding result (cFos bZIP): no binding (tested: 5 µM of each peptide)
- Fraction helicity at 20° C. (CD) [7]: 27.2%
- helicity in isolation, less helical relative to A-FosW [7]: 12.9%
- Kd (cJun): 14 nM
